Measured values published in the RNAGym collection of RNA variant scans (doi:10.7554/elife.80360).

B1: Hairpin Ribozyme (parent)
chain: GUCCUCUUUCACGUGCGCGUGAAAGAGAGAAGUGAACCAGAGAAACACACGUUGUGGUAUAUUACCUGGUA

Variants of: B1
Assay: self-cleavage, relative activity (ratio to wild type); higher = more cleavage; co-transcriptional

Variant | self-cleavage
U9G U58G | 0.579
U9G U60G | 0.322
U9G U62G | 0.154
U9G U63A | 0.102
U9G U67C | 0.188
C10A A22C | 0.636
C10A A23C | 0.657
C10A A24G | 0.57
C10A A24U | 0.584
C10A A26C | 0.297
C10A A26U | 0.461
C10A A28C | 0.251
C10A A35G | 0.63
C10A A35U | 0.56
C10A A36C | 0.528
C10A A39G | 0.224
C10A A39U | 0.262
C10A A43U | 0.133
C10A A45G | 0.138
C10A A47U | 0.177
C10A A49C | 0.223
C10A A59U | 0.234
C10A A61C | 0.18
C10A A61U | 0.194

Variant | self-cleavage
C10A A64U | 0.121
C10A A71U | 0.557
C10A C12G | 0.556
C10A C12U | 0.452
C10A C16U | 0.762
C10A C37G | 0.266
C10A C37U | 0.437
C10A C38A | 0.171
C10A C38G | 0.196
C10A C48A | 0.102
C10A C48G | 0.157
C10A C48U | 0.0572
C10A C50A | 0.255
C10A C50G | 0.352
C10A C65U | 0.274
C10A G13U | 0.425
C10A G15U | 0.871
C10A G17A | 0.622
C10A G21U | 0.939
C10A G27A | 0.35
C10A G27U | 0.233
C10A G29C | 0.16
C10A G29U | 0.0922
C10A G34C | 0.942

Variant | self-cleavage
C10A G51A | 0.695
C10A G56A | 0.133
C10A G56C | 0.11
C10A G68C | 0.114
C10A G69A | 0.317
C10A G69C | 0.241
C10A U20G | 0.663
C10A U33C | 0.174
C10A U53G | 0.514
C10A U55A | 0.23
C10A U58C | 0.858
C10A U63A | 0.118
C10A U67A | 0.0418
C10G A22U | 0.661
C10G A23U | 0.656
C10G A24C | 0.641
C10G A28G | 0.954
C10G A28U | 0.586
C10G A30C | 0.168
C10G A30G | 0.143
C10G A30U | 0.0991
C10G A35C | 0.726
C10G A35G | 0.656
C10G A36G | 0.778

Variant | self-cleavage
C10G A39U | 0.273
C10G A43G | 0.175
C10G A44C | 0.126
C10G A44G | 0.108
C10G A44U | 0.133
C10G A59U | 0.16
C10G A61C | 0.255
C10G A61U | 0.2
C10G A64C | 0.169
C10G A71C | 1.2
C10G C16A | 0.555
C10G C16U | 0.735
C10G C37A | 0.22
C10G C46A | 0.106
C10G C48A | 0.151
C10G C50A | 0.198
C10G C65G | 0.246
C10G C66G | 0.189
C10G C66U | 0.347
C10G G13A | 0.568
C10G G17C | 0.533
C10G G17U | 0.539
C10G G21A | 0.704
C10G G21C | 0.93

Variant | self-cleavage
C10G G21U | 0.872
C10G G27A | 0.405
C10G G27C | 0.147
C10G G29A | 0.0932
C10G G29C | 0.106
C10G G32U | 0.15
C10G G34U | 1.06
C10G G51A | 0.755
C10G G51U | 0.699
C10G G54C | 0.193
C10G G56A | 0.156
C10G G69A | 0.299
C10G G69U | 0.142
C10G U53A | 0.663
C10G U53C | 0.59
C10G U58C | 0.681
C10G U60A | 0.608
C10G U62A | 0.0993
C10G U62C | 0.261
C10G U67A | 0.191
C10G U67C | 0.172
C10G U70G | 0.611
C10U A11G | 0.734
C10U A22C | 0.631

Variant | self-cleavage
C10U A24C | 0.613
C10U A24G | 0.885
C10U A24U | 0.778
C10U A26U | 0.624
C10U A28U | 0.357
C10U A30C | 0.146
C10U A31G | 0.812
C10U A31U | 0.103
C10U A39U | 0.334
C10U A41C | 1.03
C10U A41U | 0.817
C10U A49C | 0.143
C10U A49G | 0.422
C10U A59C | 0.227
C10U A59G | 0.206
C10U A61C | 0.311
C10U A61G | 0.201
C10U A64C | 0.213
C10U A71G | 0.811
C10U C12U | 0.652
C10U C16A | 0.887
C10U C16G | 0.564
C10U C18G | 0.755
C10U C37U | 0.39

Variant | self-cleavage
C10U C46U | 0.152
C10U C65A | 0.642
C10U C65U | 0.204
C10U C66G | 0.19
C10U C66U | 0.43
C10U G13C | 0.471
C10U G13U | 0.612
C10U G17A | 0.808
C10U G17C | 0.58
C10U G19A | 0.588
C10U G19C | 0.702
C10U G21A | 0.937
C10U G21C | 0.77
C10U G25A | 0.429
C10U G27A | 0.403
C10U G29C | 0.159
C10U G29U | 0.134
C10U G32A | 0.176
C10U G32U | 0.164
C10U G34C | 1.02
C10U G40A | 0.308
C10U G42C | 0.266
C10U G42U | 0.269
